Experimental data reported in PMC8609364, “A Selective Tether Recruits Activated Response Regulator CheB to Its Chemoreceptor Substrate” (mBio, 2021).
Where two headings read alike, the source gives them in different places. Ends that are not written are not given here.

Experiments:
[1] = test system: CheB binding to pentapeptide; set-up: method as in PMID 11435446; conditions: ref [11]; cited from earlier work
CheB [2] = conditions: position 132; ref [11]; cited from earlier work
unphosphorylated CheB [3] = conditions: isothermal titration calorimetry, free pentapeptide, ref [21], read-out: equilibrium dissociation constant; cited from earlier work
Description: (§1) We measured binding of the low-activity, unphosphorylated form of CheB to the NWETF pentapeptide tethered to the sensor surface via a linker or in its native position at the carboxyl terminus of Tar4E or Tar4Q ([23]). Equilibrium dissociation constants were essentially the same for all conditions, 190 ± 85 μM for pentapeptide alone, and 230 ± 70 and 160 ± 30 for the pentapeptide on Tar4E or Tar4Q, respectively (Table 1). Within the error of the measurements, these values corresponded to those previously determined for free pentapeptide binding to unphosphorylated CheB by isothermal titration c ...

CheB [4] = test: Binding of CheB to NWETF pentapeptide tethered to the sensor surface via a linker (biolayer interferometry); set-up: species or system E. coli; conditions: BLI, low-activity, unphosphorylated CheB, read-out: Equilibrium dissociation constant, pentapeptide alone
Description: as §1, with “1).” for “1). Within the error of the measurements, these values corresponded to those previously determined for free pentapeptide binding to unphosphorylated CheB by isothermal titration c ...”
Kinetics of CheB association and dissociation with Nanodisc-embedded Tar biotinylated at L378C were determined using biolayer interferometry ([22], [23]) as measured by a BLItz instrument (ForteBio, Menlo Park, CA, USA) and described in reference. Representative time course experiments are shown in Fig. S1 in the supplemental material. Measurements for CheB-P* and CheB-P*-I were in 50 mM Tris-HCl (pH 7.5), 10% (wt/vol) glycerol, 5 mM MgCl2, 50 mM KCl, and 2% (wt/vol) bovine serum albumin (BSA). Measurements for CheB and CheBc were in the same solution plus 2 mM dithiothreitol (DTT).
Using BLItz software, response curves were fit globally to a 1:1 binding model to yield apparent association rate constants (kon) and dissociation rate constants (koff). […]

unphosphorylated CheB [5] = conditions: equilibrium dialysis, free pentapeptide, ref [21], read-out: equilibrium dissociation constant; cited from earlier work
CheB [6] = conditions: low-activity, unphosphorylated CheB from E. coli; ref [21]; read-out: dissociation constants; cited from earlier work
Description: (§2) CheB is a two-domain protein, with an amino-terminal response regulator domain attached by a linker sequence to a carboxyl-terminal catalytic domain ([17]) (Fig. 1B). Phosphorylation of the response regulator domain by the chemotaxis histidine kinase creates a high-activity form of the methylesterase ([6]), shifting interaction between the two domains to an “open” conformation that relieves occlusion of the active site by the regulatory amino-terminal domain ([18], [19]). The enzyme binds its substrate chemoreceptor side chains with the surfaces surrounding its active site ([20]). In contrast, ...

[7] = target: Tar4Q L378C, E. coli aspartate chemoreceptor Tar, all-glutaminyl form with carboxyl-terminal pentapeptide, homodimer in Nanodiscs (E. coli) (UniProt P07017); test: BLI; BLItz; biotinylated Tar homodimers in Nanodiscs held on an avidin sensor tip, CheB-P* or CheB-P*-I in solution; 50 mM Tris-HCl pH 7.5, 10% glycerol, 5 mM MgCl2, 50 mM KCl, 2% BSA, no DTT; global fit, apparent rate constants, KD calculated from kon and koff
[8] = target: Tar4E L378C, E. coli aspartate chemoreceptor Tar, all-glutamyl form with carboxyl-terminal pentapeptide, homodimer in Nanodiscs (E. coli) (UniProt P07017); test: as above
[9] = target: Tar4QΔpp-6H L378C, E. coli Tar lacking the carboxyl-terminal pentapeptide, all-glutaminyl form, homodimer in Nanodiscs (E. coli) (UniProt P07017); test: as above
[10] = target: Tar4EΔpp-6H L378C, E. coli Tar lacking the carboxyl-terminal pentapeptide, all-glutamyl form, homodimer in Nanodiscs (E. coli) (UniProt P07017); test: as above
[11] = target: T1, methylesterase/deamidase CheB from E. coli, low-activity, unphosphorylated form (E. coli, UniProt P07330 1-349); test: BLI; BLItz; NWETF pentapeptide tethered to the sensor surface via a linker, CheB in solution; apparent rate constants, KD calculated from kon and koff; conditions: both partners purified
T1 construct: CheB methylesterase/deamidase of E. coli, unphosphorylated, from plasmid pCW/cheB; measured with 2 mM DTT in the buffer; also called low-activity CheB; unmodified CheB; source: E. coli K-12 RP3098 with pCW/cheB, purified
T1 sequence (looked up): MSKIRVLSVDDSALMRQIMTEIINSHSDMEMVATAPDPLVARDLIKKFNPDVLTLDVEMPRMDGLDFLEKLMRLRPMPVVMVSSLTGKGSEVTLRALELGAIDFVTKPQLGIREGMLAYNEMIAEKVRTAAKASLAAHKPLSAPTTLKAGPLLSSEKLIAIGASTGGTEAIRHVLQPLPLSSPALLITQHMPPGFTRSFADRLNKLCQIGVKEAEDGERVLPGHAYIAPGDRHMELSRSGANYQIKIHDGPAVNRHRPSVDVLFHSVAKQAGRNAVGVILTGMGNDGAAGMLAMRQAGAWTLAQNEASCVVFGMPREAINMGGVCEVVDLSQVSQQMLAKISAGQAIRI

[12] = low-activity, unphosphorylated CheB; ref [16]; read-out: dissociation constant; cited from earlier work
Description: as §2

**Q.** For “peptide from CheB residues 130 through 140 (AAKASLAAHKP; UniProt P07330 130-140, looked up, fragment)”, which “reduction of binding of intact enzyme to pentapeptide” value [1] is on record?
**A.** reduced binding of intact enzyme to pentapeptide

**Q.** What does the source list for NWETF [NWETF]?
**A.** protection of intact CheB from limited proteolysis (CheB [2]): protected intact CheB from limited proteolysis at position 132; Kd (unphosphorylated CheB [3]): 160 µM; Kd (CheB [4]): 190 ± 85 µM; Kd (unphosphorylated CheB [5]): 130 µM; Kd (CheB [6]): 130 to 160 µM

**Q.** Which fold reduction of KA against CheB-P* [7] does the source give for “CheB-P*-I, enzymatically inactive phosphorylation mimic, Salmonella CheB D56C/S164A/C207S/C309S modified with thiophosphate (from UniProt P04042 1-349) (enzyme)” here?
**A.** 2.5 fold

**Q.** What about the fold reduction of KA against CheB-P* [8] of the same molecule?
**A.** 2.5 fold

**Q.** Which Kd [7] does the source give for “CheB-P*, phosphorylation mimic of Salmonella CheB D56C/C207S/C309S modified with thiophosphate (from UniProt P04042 1-349) (enzyme)” here?
**A.** 13 µM

**Q.** What about the dwell time (1/koff) [7] of the same molecule?
**A.** 3 s

**Q.** What about the Kd [9] of the same molecule?
**A.** 200 µM

**Q.** And the Kd [10]?
**A.** 200 µM

**Q.** What about the Kd [8] of the same molecule?
**A.** 13 µM

**Q.** And the dwell time (1/koff) [8]?
**A.** 3 s

B1: NWETF pentapeptide tethered to the sensor surface via a linker (peptide)
peptide: NWETF
modifications: also: tethered to sensor surface via a linker (not described)
notes: carboxyl-terminal pentapeptide of the E. coli chemoreceptor Tar; also called pentapeptide alone
**Q.** Which Kd [11] does the source give for B1 here?
**A.** 190 µM

B2: CheB from Pseudomonas aeruginosa (protein, UniProt O87125 1-368, looked up)
Protein-glutamate …: MAVKVLVVDDSGFFRRRVSEILSADGQIQVVGTGTNGREAIEQALALRPDVITMDYEMPLMDGITAVRNIMQRCPTPVLMFSSLTHEGARVTLDALDAGAVDYLPKNFEDISRNPDKVRQLLCEKVLTIARSNRRSISLPPLPSATSSSHAPASSSSVGASARVGAGASPAPASTSAAPKRKAYRLVAIGTSTGGPVALQRVLTQLPANFPAPLVLIQHMPAAFTKAFAERLDKLCRINVKEAEDGDILRPGLALLAPGGKQMMVDGRGTVRILPGDERLNYKPCVDVTFGSAAKAYNDKVLAVVLTGMGADGREGARLLKQGGSQVWAQDEASCVIYGMPMAVVKANLADAVYGLDDIGRHLVEACQ
**Q.** For B2, which Kd [12] is on record?
**A.** ~90 µM
